Read-outs that look alike come from different tables or passages of the source.

B6: Rubisco large subunit of Nostoc sp. PCC 7120 (natural protein, UniProt P00879 1-476, looked up)
chain: MSYAQTKTQTKSGYKAGVQDYRLTYYTPDYTPKDTDILAAFRVTPQPGVPFEEAAAAVAAESSTGTWTTVWTDLLTDLDRYKGRCYDIEPVPGEDNQFIAYIAYPLDLFEEGSITNVLTSIVGNVFGFKALRALRLEDIRFPVAYIKTFQGPPHGIQVERDKLNKYGRPLLGCTIKPKLGLSAKNYGRAVYECLRGGLDFTKDDENINSAPFQRWRDRFLFVADAITKAQAETGEIKGHYLNVTAPTCEEMLKRAEYAKELKQPIIMHDYLTAGFTANTTLARWCRDNGVLLHIHRAMHAVIDRQKNHGIHFRVLAKALRLSGGDHIHTGTVVGKLEGERGITMGFVDLLRENYVEQDKSRGIYFTQDWASLPGVMAVASGGIHVWHMPALVEIFGDDSVLQFGGGTLGHPWGNAPGATANRVALEACVQARNEGRNLAREGNDVIREAAKWSPELAVACELWKEIKFEFEAMDTV

Data set [1] concerns the target B6. Put plainly: cryo-EM structure.
Data set [2] deals with the molecule itself. Put plainly: SEC-MALS.
Data set [3] deals with the molecule itself. As to the kind of experiment: cryo-EM structure.
Data set [4] concerns the target B6. As to the kind of experiment: cryo-EM structure. The source holds these as a separate data set.

B1: Rubisco small subunit of Nostoc sp. PCC 7120 (natural protein, UniProt P06514 1-109, looked up)
chain: MQTLPKERRYETLSYLPPLTDVQIEKQVQYILSQGYIPAVEFNEVSEPTELYWTLWKLPLFGAKTSREVLAEVQSCRSQYPGHYIRVVGFDNIKQCQILSFIVHKPSRY
For the molecule B1, the binding result in data set [1] was “binds”.

B2: NosRcaΔC (NosRca lacking the C-terminal 123 residues: linker and SSUL domain) (domain or fragment, Nostoc sp. PCC 7120, UniProt P58555 2-291, looked up)
chain: SYYIAPRFLDKLAVHITKNFLNIPGVRVPLILGIHGRKGEGKTFQCELAFEKMGIEVTLISGGELESPDAGDPARLIRLRYRETAELIKVRGKMCVLMINDLDAGAGRFDEGTQYTVNTQLVNATLMNIADNPTDVQLPGSYDSNPIRRVPIIVTGNDFSTLYAPLIRDGRMEKFYWEPNRDDKVGIVGGIFAEDGLSQREIEQLVDTFPKQSIDFFSALRSRIYDIQIRDFIHKVGFERISLRVVNSLEAPPEFKKPDFSLAHLIESGNLVLGEQQRVDNSQLVDEYNR
Consider B2, for which the “stoichiometry N” value in data set [2] was found to be 6.

B3: NosRcaΔC L244D/N248A/L250A (domain or fragment, Nostoc sp. PCC 7120, UniProt P58555 2-291, looked up)
chain: SYYIAPRFLDKLAVHITKNFLNIPGVRVPLILGIHGRKGEGKTFQCELAFEKMGIEVTLISGGELESPDAGDPARLIRLRYRETAELIKVRGKMCVLMINDLDAGAGRFDEGTQYTVNTQLVNATLMNIADNPTDVQLPGSYDSNPIRRVPIIVTGNDFSTLYAPLIRDGRMEKFYWEPNRDDKVGIVGGIFAEDGLSQREIEQLVDTFPKQSIDFFSALRSRIYDIQIRDFIHKVGFERISDRVVASAEAPPEFKKPDFSLAHLIESGNLVLGEQQRVDNSQLVDEYNR
For B3, the “stoichiometry N” value in data set [2] was found to be 6.

B4: NosRcaΔC V91E/R92G/G93N (domain or fragment, Nostoc sp. PCC 7120, UniProt P58555 2-291, looked up)
chain: SYYIAPRFLDKLAVHITKNFLNIPGVRVPLILGIHGRKGEGKTFQCELAFEKMGIEVTLISGGELESPDAGDPARLIRLRYRETAELIKEGNKMCVLMINDLDAGAGRFDEGTQYTVNTQLVNATLMNIADNPTDVQLPGSYDSNPIRRVPIIVTGNDFSTLYAPLIRDGRMEKFYWEPNRDDKVGIVGGIFAEDGLSQREIEQLVDTFPKQSIDFFSALRSRIYDIQIRDFIHKVGFERISLRVVNSLEAPPEFKKPDFSLAHLIESGNLVLGEQQRVDNSQLVDEYNR
With B4, the “stoichiometry N” value in data set [2] was found to be 6.

B5: NosRcaΔC P140G/Y143A/D144A (domain or fragment, Nostoc sp. PCC 7120, UniProt P58555 2-291, looked up)
chain: SYYIAPRFLDKLAVHITKNFLNIPGVRVPLILGIHGRKGEGKTFQCELAFEKMGIEVTLISGGELESPDAGDPARLIRLRYRETAELIKVRGKMCVLMINDLDAGAGRFDEGTQYTVNTQLVNATLMNIADNPTDVQLGGSAASNPIRRVPIIVTGNDFSTLYAPLIRDGRMEKFYWEPNRDDKVGIVGGIFAEDGLSQREIEQLVDTFPKQSIDFFSALRSRIYDIQIRDFIHKVGFERISLRVVNSLEAPPEFKKPDFSLAHLIESGNLVLGEQQRVDNSQLVDEYNR
As for B5, the “stoichiometry N” value in data set [2] turned out to be 6.
B6: the binding result in data set [3] is listed as “binds”.

B7: Rubisco activase ('Rca-like' protein) of Nostoc sp. PCC 7120 (natural protein, UniProt P58555 2-414, looked up)
chain: SYYIAPRFLDKLAVHITKNFLNIPGVRVPLILGIHGRKGEGKTFQCELAFEKMGIEVTLISGGELESPDAGDPARLIRLRYRETAELIKVRGKMCVLMINDLDAGAGRFDEGTQYTVNTQLVNATLMNIADNPTDVQLPGSYDSNPIRRVPIIVTGNDFSTLYAPLIRDGRMEKFYWEPNRDDKVGIVGGIFAEDGLSQREIEQLVDTFPKQSIDFFSALRSRIYDIQIRDFIHKVGFERISLRVVNSLEAPPEFKKPDFSLAHLIESGNLVLGEQQRVDNSQLVDEYNRLNRGRGYQTAPPPEAPVIQPVNNSSHKQKTSNTHLSLETQEQIRQILSQGHKITFEHVDARRFRTGSWQSCGTLHIDAESDAISTLEACLVDYDGEYVRMVGIDPKGKRRVVETIIQRPNGKN
B7: the “stoichiometry N” value in data set [2] is 6. For the same molecule, the binding result in data set [4] was “binds”.

B8: NosRca-IFmut (NosRca V91E/R92G/G93N/L244D/N248A/L250A) (natural protein, Nostoc sp. PCC 7120, UniProt P58555 2-414, looked up)
chain: SYYIAPRFLDKLAVHITKNFLNIPGVRVPLILGIHGRKGEGKTFQCELAFEKMGIEVTLISGGELESPDAGDPARLIRLRYRETAELIKEGNKMCVLMINDLDAGAGRFDEGTQYTVNTQLVNATLMNIADNPTDVQLPGSYDSNPIRRVPIIVTGNDFSTLYAPLIRDGRMEKFYWEPNRDDKVGIVGGIFAEDGLSQREIEQLVDTFPKQSIDFFSALRSRIYDIQIRDFIHKVGFERISDRVVASAEAPPEFKKPDFSLAHLIESGNLVLGEQQRVDNSQLVDEYNRLNRGRGYQTAPPPEAPVIQPVNNSSHKQKTSNTHLSLETQEQIRQILSQGHKITFEHVDARRFRTGSWQSCGTLHIDAESDAISTLEACLVDYDGEYVRMVGIDPKGKRRVVETIIQRPNGKN
For the molecule B8, in data set [2], the “stoichiometry N” value was determined as 6.

Values taken from publication doi:10.1101/2020.05.16.099382 (bioRxiv, 2020).
